{"source": "the supplement of paper PMC7125110", "parents": {"B1": {"name": "glmS ribozyme (parent)", "chain": "AUAAAAGCGCCAGAACUACAGAAAUGUAGUUGACGAGGAGGAGGUUUAUCGAAUUUUCGGCGGAUGCCUCCAAA"}}, "note": "± gives the standard error. Fewer inactive variants are shown than the library holds."}
{"variants_of": "B1", "assay": "self-cleavage kobs at 10000 uM GlcN6P; higher = faster cleavage; RNA array", "conditions": "with glucosamine-6-phosphate", "procedure,_shortened": "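Ribozyme variants carrying barcodes were transcribed in situ on sequenced MiSeq chips by E. coli RNA polymerase and tracked at 37 °C with a hybridised Cy3 probe. They were exposed to 40 μM to 10 mM glucosamine-6-phosphate in HEPES/KCl/Mg(OAc)2 buffer. kobs came from exponential decay fits of normalised per-tile medians, and kcat and KM from weighted Michaelis–Menten fits.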", "units": {"self-cleavage kobs at 10000 uM GlcN6P": "s⁻¹"}}
{"variant": "A36C U46G U49G", "self-cleavage kobs at 10000 uM GlcN6P": "0.000106 ± 2.7e-05"}
{"variant": "A12C U57G", "self-cleavage kobs at 10000 uM GlcN6P": "5.46e-05 ± 1.2e-05"}
{"variant": "G7A G40C A42U G43U U57C", "self-cleavage kobs at 10000 uM GlcN6P": "< 1e-05"}
{"variant": "G7A G29U G37C", "self-cleavage kobs at 10000 uM GlcN6P": "< 1e-05"}
{"variant": "C16A A33C A42C C71U", "self-cleavage kobs at 10000 uM GlcN6P": "< 1e-05"}
{"variant": "C10G G37A G60U", "self-cleavage kobs at 10000 uM GlcN6P": "< 1e-05"}
{"variant": "A14G C16U A39U", "self-cleavage kobs at 10000 uM GlcN6P": "0.0817 ± 0.036"}
{"variant": "A12U A15C C16U", "self-cleavage kobs at 10000 uM GlcN6P": "0.0012 ± 0.00023"}
{"variant": "A39C G51A C58U G62U", "self-cleavage kobs at 10000 uM GlcN6P": "< 1e-05"}
{"variant": "U46C G62A G66A C71A", "self-cleavage kobs at 10000 uM GlcN6P": "< 1e-05"}
{"variant": "A15G G41C U47G C61U U65A", "self-cleavage kobs at 10000 uM GlcN6P": "< 1e-05"}
{"variant": "A15U U30G G60C", "self-cleavage kobs at 10000 uM GlcN6P": "< 1e-05"}
{"variant": "A6C C8U A36C G37U", "self-cleavage kobs at 10000 uM GlcN6P": "< 1e-05"}
{"variant": "C16G G32U C58U", "self-cleavage kobs at 10000 uM GlcN6P": "0.000423 ± 0.00013"}
{"variant": "A6C C34A G37U", "self-cleavage kobs at 10000 uM GlcN6P": "< 1e-05"}
{"variant": "G29U A53C G66A", "self-cleavage kobs at 10000 uM GlcN6P": "0.000258 ± 4.6e-05"}
{"variant": "G13U G37A G40U", "self-cleavage kobs at 10000 uM GlcN6P": "< 1e-05"}
{"variant": "A39C U46A U55A U57A", "self-cleavage kobs at 10000 uM GlcN6P": "< 1e-05"}
{"variant": "G13C G29U G66A C71U", "self-cleavage kobs at 10000 uM GlcN6P": "3.46e-05 ± 1.2e-05"}
{"variant": "A42U U46C C50A A53U", "self-cleavage kobs at 10000 uM GlcN6P": "< 1e-05"}
{"variant": "C34U U49C C50G C61U C68G C71G", "self-cleavage kobs at 10000 uM GlcN6P": "0.000303 ± 7.9e-05"}
{"variant": "U49A A53C G63U C71G", "self-cleavage kobs at 10000 uM GlcN6P": "< 1e-05"}
{"variant": "C10U A33G C68U", "self-cleavage kobs at 10000 uM GlcN6P": "< 1e-05"}
{"variant": "C34A G35A G40U G41C U46G", "self-cleavage kobs at 10000 uM GlcN6P": "< 1e-05"}
{"variant": "A18C A33C", "self-cleavage kobs at 10000 uM GlcN6P": "0.000165 ± 4.4e-05"}
{"variant": "A15G A39G U55A C58U", "self-cleavage kobs at 10000 uM GlcN6P": "2.43e-05 ± 1.1e-05"}
{"variant": "G35C U47A G66U", "self-cleavage kobs at 10000 uM GlcN6P": "< 1e-05"}
{"variant": "U65C U69C", "self-cleavage kobs at 10000 uM GlcN6P": "0.000106 ± 2.2e-05"}
{"variant": "G29A C34G C67A", "self-cleavage kobs at 10000 uM GlcN6P": "< 1e-05"}
{"variant": "U31C G66C", "self-cleavage kobs at 10000 uM GlcN6P": "8.11e-05 ± 1.3e-05"}
{"variant": "A33C G44A A48U", "self-cleavage kobs at 10000 uM GlcN6P": "< 1e-05"}
{"variant": "C10U G38U G63C C70U", "self-cleavage kobs at 10000 uM GlcN6P": "< 1e-05"}
{"variant": "U30C G32A G66A", "self-cleavage kobs at 10000 uM GlcN6P": "0.001 ± 0.00026"}
{"variant": "C11G A64C C67G", "self-cleavage kobs at 10000 uM GlcN6P": "< 1e-05"}
{"variant": "G13C G35C U49C", "self-cleavage kobs at 10000 uM GlcN6P": "< 1e-05"}
{"variant": "U30A G32U C67A", "self-cleavage kobs at 10000 uM GlcN6P": "0.000213 ± 6e-05"}
{"variant": "C8G A42U U55G", "self-cleavage kobs at 10000 uM GlcN6P": "< 1e-05"}
{"variant": "G7U G29U G37U", "self-cleavage kobs at 10000 uM GlcN6P": "< 1e-05"}
{"variant": "C10G C61A G66U", "self-cleavage kobs at 10000 uM GlcN6P": "< 1e-05"}
{"variant": "A12U A14C U31C", "self-cleavage kobs at 10000 uM GlcN6P": "0.00145 ± 0.00047"}
{"variant": "G13A C71A", "self-cleavage kobs at 10000 uM GlcN6P": "0.000168 ± 3.3e-05"}
{"variant": "U46A C68A C71A", "self-cleavage kobs at 10000 uM GlcN6P": "< 1e-05"}
{"variant": "G41C U56G G62U", "self-cleavage kobs at 10000 uM GlcN6P": "< 1e-05"}
{"variant": "C11A U30C A39C G59U", "self-cleavage kobs at 10000 uM GlcN6P": "0.000272 ± 6.2e-05"}
{"variant": "A14U G37U A48G U49C C71U", "self-cleavage kobs at 10000 uM GlcN6P": "< 1e-05"}
{"variant": "G38A A42U C50G C67G", "self-cleavage kobs at 10000 uM GlcN6P": "0.000231 ± 6.8e-05"}
{"variant": "G32A U56A C67G", "self-cleavage kobs at 10000 uM GlcN6P": "0.000139 ± 2e-05"}
{"variant": "A48G A52G C71G", "self-cleavage kobs at 10000 uM GlcN6P": "< 1e-05"}
{"variant": "A6U A15C A48C A64U", "self-cleavage kobs at 10000 uM GlcN6P": "< 1e-05"}
{"variant": "A14C C58U", "self-cleavage kobs at 10000 uM GlcN6P": "8.12e-05 ± 1.2e-05"}
{"variant": "C10A A36C C50U G59C", "self-cleavage kobs at 10000 uM GlcN6P": "< 1e-05"}
{"variant": "A15U G44U A64U", "self-cleavage kobs at 10000 uM GlcN6P": "< 1e-05"}
{"variant": "C10U A15G G35A", "self-cleavage kobs at 10000 uM GlcN6P": "< 1e-05"}
{"variant": "A6U U54C U55G", "self-cleavage kobs at 10000 uM GlcN6P": "0.000129 ± 3.3e-05"}
{"variant": "G35C U45G U47A U65C", "self-cleavage kobs at 10000 uM GlcN6P": "< 1e-05"}
{"variant": "A15U U56G C71A", "self-cleavage kobs at 10000 uM GlcN6P": "0.000528 ± 0.00016"}
{"variant": "A33U C58G C67U C68A", "self-cleavage kobs at 10000 uM GlcN6P": "5.11e-05 ± 1.6e-05"}
{"variant": "G43U U55G", "self-cleavage kobs at 10000 uM GlcN6P": "3.47e-05 ± 1.3e-05"}
{"variant": "G37U G60U U69C", "self-cleavage kobs at 10000 uM GlcN6P": "< 1e-05"}
{"variant": "C16G G35C C58U", "self-cleavage kobs at 10000 uM GlcN6P": "< 1e-05"}
{"variant": "A12U C16A U65C", "self-cleavage kobs at 10000 uM GlcN6P": "5.77e-05 ± 1.6e-05"}
{"variant": "A12C U69A C71U", "self-cleavage kobs at 10000 uM GlcN6P": "4.87e-05 ± 1.6e-05"}
{"variant": "G9U C34U A36C G62C", "self-cleavage kobs at 10000 uM GlcN6P": "< 1e-05"}
{"variant": "G32U U47G C70G", "self-cleavage kobs at 10000 uM GlcN6P": "0.00012 ± 3.4e-05"}
{"variant": "G29C G44A U47C U49G U57G G60C C68U C70G", "self-cleavage kobs at 10000 uM GlcN6P": "< 1e-05"}
{"variant": "C10A C11U G38C U55C C61A A64U", "self-cleavage kobs at 10000 uM GlcN6P": "< 1e-05"}
{"variant": "C34U G38A C70G", "self-cleavage kobs at 10000 uM GlcN6P": "3.44e-05 ± 1.7e-05"}
{"variant": "G9U U31G U54A", "self-cleavage kobs at 10000 uM GlcN6P": "< 1e-05"}
{"variant": "A12C G37A U47G", "self-cleavage kobs at 10000 uM GlcN6P": "0.000241 ± 4.8e-05"}
{"variant": "C61U G62U C67U", "self-cleavage kobs at 10000 uM GlcN6P": "< 1e-05"}
{"variant": "G9C U31A", "self-cleavage kobs at 10000 uM GlcN6P": "< 1e-05"}
{"variant": "C8A C11G A48U C67G C71A", "self-cleavage kobs at 10000 uM GlcN6P": "< 1e-05"}
{"variant": "A42U G62A U69G", "self-cleavage kobs at 10000 uM GlcN6P": "< 1e-05"}
{"variant": "G7U C8U A12G C70G", "self-cleavage kobs at 10000 uM GlcN6P": "4.36e-05 ± 1.9e-05"}
{"variant": "G32A U55C G60U C61U", "self-cleavage kobs at 10000 uM GlcN6P": "< 1e-05"}
{"variant": "U30C A36G U54A", "self-cleavage kobs at 10000 uM GlcN6P": "< 1e-05"}
{"variant": "A48U C61A C70G", "self-cleavage kobs at 10000 uM GlcN6P": "< 1e-05"}
{"variant": "A6U U54C C71U", "self-cleavage kobs at 10000 uM GlcN6P": "0.000136 ± 2.2e-05"}
{"variant": "A14C G60U C70A", "self-cleavage kobs at 10000 uM GlcN6P": "< 1e-05"}
{"variant": "U30C G51A C67G", "self-cleavage kobs at 10000 uM GlcN6P": "< 1e-05"}
{"variant": "G44A U65G C67U", "self-cleavage kobs at 10000 uM GlcN6P": "0.00292 ± 0.00045"}
{"variant": "A39C C50A A53C G66U", "self-cleavage kobs at 10000 uM GlcN6P": "< 1e-05"}
{"variant": "U30G G51U U55C C61A", "self-cleavage kobs at 10000 uM GlcN6P": "< 1e-05"}
{"variant": "C16G U46C C70U", "self-cleavage kobs at 10000 uM GlcN6P": "0.000325 ± 7.4e-05"}
